Assay [1] deals with Flourescein-QSPKKG-CONH2 (neutrally charged phosphorylatable CDK2 substrate). Briefly: fluorescence polarization in a cuvette, 50 mM TAPS pH 9.0, poly-D-lysine added in aliquots; about 38 mP without polylysine.
Assay [2] deals with phosphorylated product of Flourescein-QSPKKG-CONH2 (after overnight incubation with ATP and CDK2). The description is as above.
Assay [3] shares this target. Briefly: fluorescence polarization in a cuvette, 50 mM TAPS pH 9.0, large excess of poly-D-lysine; about 38 mP without polylysine. (In general: In fluorescence polarisation assays a small probe gives low polarisation when free and higher when bound to something large.)

We go through 1 substance from patent US20040058406A1.

On to poly-D-Lysine, for which the fluorescence polarization in assay [1] stood at 42 mP; in assay [2] it was 72 mP; in assay [3], 100 mP.
